The values below come from the supplement of paper PMC9112550, “Optimization of the antimicrobial peptide Bac7 by deep mutational scanning” (BMC Biology, 2022).

The subject of the series is Escherichia coli TOP10. Briefly: shrunken log2 fold change of peptide-encoding DNA abundance (4.5 h post-induction vs induction); higher = less antimicrobial activity (less host growth inhibition). Particulars: time post-induction: 4.5 h; library: site-saturation at positions 5, 18, 19, 20.
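Also: peptides expressed intracellularly from a pBAD plasmid library in pooled LB shake-flask culture, induced with 0.3% L-arabinose, DNA abundance read by NGS, three biological replicates, DESeq2 with apeglm shrinkage.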

Turning to RRIRYRPPRLPRPRPRPLCCPRP, the “shrunken log2 fold change” value was -0.391.

For the sequence RRIRVRPPRLPRPRPRPPQRPRP, the “shrunken log2 fold change” value is 0.374.

As to RRIRLRPPRLPRPRPRPQTIPRP, the “shrunken log2 fold change” value was -0.234.

For RRIRPRPPRLPRPRPRPMSHPRP, the “shrunken log2 fold change” value came to 0.0914.

For RRIRERPPRLPRPRPRPTKTPRP, the “shrunken log2 fold change” value was -0.0835.

As to RRIRFRPPRLPRPRPRPCATPRP, the “shrunken log2 fold change” value amounted to 0.0672.

For RRIRSRPPRLPRPRPRPKADPRP, the “shrunken log2 fold change” value is 0.572.

As for RRIRMRPPRLPRPRPRPAKNPRP, the “shrunken log2 fold change” value stood at 0.816.

RRIRHRPPRLPRPRPRPVEYPRP: the “shrunken log2 fold change” value is -0.0122.

On to RRIRMRPPRLPRPRPRPTSAPRP, for which the “shrunken log2 fold change” value turned out to be 0.74.

Turning to RRIRDRPPRLPRPRPRPKFLPRP, the “shrunken log2 fold change” value is -0.241.

In the case of RRIRYRPPRLPRPRPRPPMDPRP, the “shrunken log2 fold change” value is -0.582.

As to RRIRARPPRLPRPRPRPSEPPRP, the “shrunken log2 fold change” value stood at 0.11.

For the sequence RRIRSRPPRLPRPRPRPTRVPRP, the “shrunken log2 fold change” value worked out at 0.872.

Regarding RRIRWRPPRLPRPRPRPNVSPRP, the “shrunken log2 fold change” value was -0.0556.

Consider RRIRHRPPRLPRPRPRPDWNPRP, for which the “shrunken log2 fold change” value was -0.207.

As for RRIRKRPPRLPRPRPRPASWPRP, the “shrunken log2 fold change” value stood at 0.625.

Turning to RRIRLRPPRLPRPRPRPLNCPRP, the “shrunken log2 fold change” value was -0.156.

For the sequence RRIRTRPPRLPRPRPRPDIHPRP, the “shrunken log2 fold change” value is -0.357.

With RRIRLRPPRLPRPRPRPNVSPRP, the “shrunken log2 fold change” value is -0.0595.

Consider RRIRFRPPRLPRPRPRPYEYPRP, for which the “shrunken log2 fold change” value is -0.488.

Turning to RRIRWRPPRLPRPRPRPVNEPRP, the “shrunken log2 fold change” value was -0.0791.

Regarding RRIRYRPPRLPRPRPRPSHKPRP, the “shrunken log2 fold change” value is -1.57.

Regarding RRIRARPPRLPRPRPRPHLSPRP, the “shrunken log2 fold change” value amounted to 0.0969.

Take RRIRFRPPRLPRPRPRPFIRPRP: the “shrunken log2 fold change” value is -0.588.

In the case of RRIRQRPPRLPRPRPRPPIKPRP, the “shrunken log2 fold change” value was -0.0648.

As to RRIRRRPPRLPRPRPRPWSPPRP, the “shrunken log2 fold change” value is 0.186.

On to RRIRFRPPRLPRPRPRPFRGPRP, for which the “shrunken log2 fold change” value was -0.224.

Regarding RRIRQRPPRLPRPRPRPMSAPRP, the “shrunken log2 fold change” value was -0.107.

On to RRIRNRPPRLPRPRPRPSYYPRP, for which the “shrunken log2 fold change” value was -0.877.

Regarding RRIRDRPPRLPRPRPRPHNQPRP, the “shrunken log2 fold change” value was -0.398.

Regarding RRIRRRPPRLPRPRPRPVYVPRP, the “shrunken log2 fold change” value was -0.198.

With RRIRGRPPRLPRPRPRPIVAPRP, the “shrunken log2 fold change” value turned out to be 0.727.

On to RRIRVRPPRLPRPRPRPVTTPRP, for which the “shrunken log2 fold change” value came to 0.126.

Consider RRIRDRPPRLPRPRPRPCAAPRP, for which the “shrunken log2 fold change” value was found to be 0.704.

In the case of RRIRQRPPRLPRPRPRPKKAPRP, the “shrunken log2 fold change” value was -0.15.

Take RRIRNRPPRLPRPRPRPDCKPRP: the “shrunken log2 fold change” value was -0.0698.

On to RRIRMRPPRLPRPRPRPCFWPRP, for which the “shrunken log2 fold change” value turned out to be 0.237.

Take RRIRVRPPRLPRPRPRPNLMPRP: the “shrunken log2 fold change” value is -0.153.

Turning to RRIRCRPPRLPRPRPRPMDSPRP, the “shrunken log2 fold change” value is -0.142.

Consider RRIRRRPPRLPRPRPRPRPNPRP, for which the “shrunken log2 fold change” value came out at 0.624.

For the sequence RRIRWRPPRLPRPRPRPFVTPRP, the “shrunken log2 fold change” value is -0.215.

Regarding RRIRWRPPRLPRPRPRPENYPRP, the “shrunken log2 fold change” value was -0.122.

RRIRMRPPRLPRPRPRPWPVPRP: the “shrunken log2 fold change” value is 0.287.

On to RRIRTRPPRLPRPRPRPDVPPRP, for which the “shrunken log2 fold change” value was -0.0167.

In the case of RRIRSRPPRLPRPRPRPMEKPRP, the “shrunken log2 fold change” value was -0.0205.

Turning to RRIRIRPPRLPRPRPRPAKRPRP, the “shrunken log2 fold change” value turned out to be 0.0281.

In the case of RRIRPRPPRLPRPRPRPEFQPRP, the “shrunken log2 fold change” value stood at 0.0778.

Turning to RRIRGRPPRLPRPRPRPKGHPRP, the “shrunken log2 fold change” value was 0.67.

Take RRIRSRPPRLPRPRPRPGNGPRP: the “shrunken log2 fold change” value was -0.0508.

Turning to RRIRTRPPRLPRPRPRPELIPRP, the “shrunken log2 fold change” value was -0.0864.

Regarding RRIRGRPPRLPRPRPRPNGEPRP, the “shrunken log2 fold change” value was found to be 1.81.

In the case of RRIRIRPPRLPRPRPRPTKCPRP, the “shrunken log2 fold change” value is -0.696.

As to RRIRIRPPRLPRPRPRPAFFPRP, the “shrunken log2 fold change” value came out at 0.0559.

On to RRIRPRPPRLPRPRPRPPVEPRP, for which the “shrunken log2 fold change” value amounted to 0.0793.

As to RRIRVRPPRLPRPRPRPTCHPRP, the “shrunken log2 fold change” value is -0.0606.

For the sequence RRIRVRPPRLPRPRPRPDCWPRP, the “shrunken log2 fold change” value worked out at 0.135.

As for RRIRGRPPRLPRPRPRPGWRPRP, the “shrunken log2 fold change” value is 1.09.

Consider RRIRARPPRLPRPRPRPYAWPRP, for which the “shrunken log2 fold change” value was -0.129.

Regarding RRIRPRPPRLPRPRPRPHKWPRP, the “shrunken log2 fold change” value is -0.216.

Turning to RRIRYRPPRLPRPRPRPVMFPRP, the “shrunken log2 fold change” value was -0.899.

For the sequence RRIRRRPPRLPRPRPRPCITPRP, the “shrunken log2 fold change” value was -0.846.

As to RRIRGRPPRLPRPRPRPPDRPRP, the “shrunken log2 fold change” value was 0.564.

On to RRIRRRPPRLPRPRPRPCWFPRP, for which the “shrunken log2 fold change” value came out at 0.225.

On to RRIRYRPPRLPRPRPRPDRVPRP, for which the “shrunken log2 fold change” value was -0.234.

RRIRKRPPRLPRPRPRPSHMPRP: the “shrunken log2 fold change” value was -0.0291.

As to RRIRHRPPRLPRPRPRPQMHPRP, the “shrunken log2 fold change” value was -0.00258.

As to RRIRDRPPRLPRPRPRPDTCPRP, the “shrunken log2 fold change” value came to 0.00173.

In the case of RRIRKRPPRLPRPRPRPDNIPRP, the “shrunken log2 fold change” value is -0.0306.

Regarding RRIRVRPPRLPRPRPRPQHAPRP, the “shrunken log2 fold change” value is -0.154.

Regarding RRIRCRPPRLPRPRPRPLMHPRP, the “shrunken log2 fold change” value was -0.264.

On to RRIRDRPPRLPRPRPRPPWWPRP, for which the “shrunken log2 fold change” value was 0.461.

As for RRIRQRPPRLPRPRPRPKSYPRP, the “shrunken log2 fold change” value is -0.0861.

In the case of RRIRNRPPRLPRPRPRPTRQPRP, the “shrunken log2 fold change” value is 0.196.

As to RRIRERPPRLPRPRPRPYNAPRP, the “shrunken log2 fold change” value was -1.26.

In the case of RRIRMRPPRLPRPRPRPTATPRP, the “shrunken log2 fold change” value came to 3.59.

As to RRIRKRPPRLPRPRPRPLISPRP, the “shrunken log2 fold change” value came out at 0.0452.

With RRIRIRPPRLPRPRPRPASMPRP, the “shrunken log2 fold change” value is -0.281.

For RRIRSRPPRLPRPRPRPSIYPRP, the “shrunken log2 fold change” value is -0.00286.

For RRIRLRPPRLPRPRPRPDYYPRP, the “shrunken log2 fold change” value is -0.216.

On to RRIRRRPPRLPRPRPRPPCNPRP, for which the “shrunken log2 fold change” value worked out at 0.36.

With RRIRCRPPRLPRPRPRPYISPRP, the “shrunken log2 fold change” value was -0.637.

On to RRIRMRPPRLPRPRPRPLRWPRP, for which the “shrunken log2 fold change” value was 1.32.

Turning to RRIRCRPPRLPRPRPRPGAYPRP, the “shrunken log2 fold change” value is -0.319.

Consider RRIRWRPPRLPRPRPRPYNNPRP, for which the “shrunken log2 fold change” value is -0.991.

Regarding RRIRERPPRLPRPRPRPMDCPRP, the “shrunken log2 fold change” value was -0.149.

RRIRYRPPRLPRPRPRPFQLPRP: the “shrunken log2 fold change” value was -0.0518.

Turning to RRIRSRPPRLPRPRPRPVHLPRP, the “shrunken log2 fold change” value was -0.177.

For the sequence RRIRPRPPRLPRPRPRPSAWPRP, the “shrunken log2 fold change” value was found to be 0.368.

With RRIRMRPPRLPRPRPRPTKPPRP, the “shrunken log2 fold change” value was 0.0618.

In the case of RRIRDRPPRLPRPRPRPHSPPRP, the “shrunken log2 fold change” value is -0.264.
